Measured values published in US20070275898A1 (CENTRE NATIONAL DE LA RECHERCHE SCIENTIFIQUE, published 2007).

Target: β subunit of DNA polymerase III of Escherichia coli (Escherichia coli, UniProt P0A988 1-366)
Test: cell-based or functional assay

Sequence of β subunit of DNA polymerase III of Escherichia coli (P0A988 whole entry): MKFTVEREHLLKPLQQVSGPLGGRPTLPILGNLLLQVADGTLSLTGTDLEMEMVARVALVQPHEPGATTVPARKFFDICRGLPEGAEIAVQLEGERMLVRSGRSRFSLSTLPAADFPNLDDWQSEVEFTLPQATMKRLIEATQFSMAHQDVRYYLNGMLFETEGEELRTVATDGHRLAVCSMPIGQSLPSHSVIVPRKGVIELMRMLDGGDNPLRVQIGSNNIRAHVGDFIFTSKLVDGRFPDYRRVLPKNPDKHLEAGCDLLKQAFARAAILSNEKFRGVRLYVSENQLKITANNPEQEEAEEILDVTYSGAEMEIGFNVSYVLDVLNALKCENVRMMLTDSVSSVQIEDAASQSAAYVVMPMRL

- β-dependent Pol IV activity (ratio of β-dependent to β-independent polymerase activities): ~30 fold decrease
Binder: VTLLDPQMERQLVLGL [P16 peptide, the 16 last residues of Pol IV DNA polymerase of E. coli]
